The values that follow come from patent US20260132200A1.

Like-named read-outs stand apart in the source and are kept apart here.

In experiment [1] the target is human CD20 expressed on Raji cells (CD3-, CD20+ human B-cell line) (human) (UniProt P11836). Kind of experiment: cell-based or functional assay.
The target of experiment [2] is cynomolgus monkey CD3 on monkey T cells (CD2+CD4+ cells of cynomolgus PBMCs) (cynomolgus monkey) (UniProt Q95LI5). The experiment in a line: FACS on monkey PBMCs, CD2+CD4+ T cells.
Experiment [3] shares this target. The experiment in a line: FACS on cynomolgus PBMCs, CD2+CD4+ T cells.
Experiment [4] addresses human CD3 expressed on cells (Jurkat, a CD3+ human T-cell line; human T cells) (human) (UniProt P07766). The experiment in a line: cell-based or functional assay.
Experiment [5] has the same target. The experiment in a line: cell-based or functional assay. The source holds these as a separate data set.

Chain of human CD20 expressed on Raji cells (CD3-, CD20+ human B-cell line) (human) (P11836 whole entry): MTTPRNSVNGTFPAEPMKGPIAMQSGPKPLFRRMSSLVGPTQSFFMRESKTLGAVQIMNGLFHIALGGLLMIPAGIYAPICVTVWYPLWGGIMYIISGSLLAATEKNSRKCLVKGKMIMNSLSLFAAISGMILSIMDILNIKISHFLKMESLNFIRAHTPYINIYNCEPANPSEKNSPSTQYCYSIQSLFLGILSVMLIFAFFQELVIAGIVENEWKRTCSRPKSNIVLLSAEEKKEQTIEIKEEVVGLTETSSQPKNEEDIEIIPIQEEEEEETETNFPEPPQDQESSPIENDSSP
Chain of cynomolgus monkey CD3 on monkey T cells (CD2+CD4+ cells of cynomolgus PBMCs) (cynomolgus monkey) (Q95LI5 22-198): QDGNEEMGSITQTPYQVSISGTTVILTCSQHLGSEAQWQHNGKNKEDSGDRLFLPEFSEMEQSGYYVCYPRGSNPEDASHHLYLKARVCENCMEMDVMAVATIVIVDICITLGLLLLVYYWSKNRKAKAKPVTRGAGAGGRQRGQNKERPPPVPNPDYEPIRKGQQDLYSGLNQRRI

In experiment [1], “Control III: anti-CD20 therapeutic antibody with heavy and light chain sequences of Rituxan (Rituximab)” had a CDC EC50, Raji of 96.6 pM; a CDC EC50, Raji SCID1 of 85600 pM; a CDC EC50, Raji SCID2 of 58.7 pM; a CDC EC50, Raji SCID3 of 25500 pM. The CDC EC50, Raji SCID4 in experiment [1] was determined as 5290 pM.
On to “SP34, mouse monoclonal antibody reactive against the epsilon chain of the T3 complex on human T lymphocyte cells”, for which the concentration for a half-maximal effect (EC50) in experiment [2] and in experiment [3] was 70.3 pM in each case.
For the substance “OKT-3, mouse monoclonal antibody against human T-cell surface antigens (ATCC CRL-8001)”, the U937 Cytotoxicity Human T-cells [M] (EC50) is 2.35e-12 M in experiment [4] and 3.04e-12 M in experiment [5].
